Target: histone deacetylase 5 (rat (endogenous in Sprague-Dawley rat cardiac myocytes))
Assay: co-IP; HDAC5 precipitated from equal amounts of cardiac myocyte nuclear extracts, 14-3-3 detected by western blotting; cells treated with vehicle, ET1 (0.1 µM), PPAR ligands (troglitazone 1 µM, fenofibrate 10 µM, GW501516 1 µM), with or without shRNA knockdown of DGKζ

percent of normalized 14-3-3 in HDAC5 precipitates of ET1-treated cells vs. vehicle-treated control (% vs. control): 138
Substance: 14-3-3 chaperone proteins (from UniProt P63102 1-245) (natural protein)

From paper PMC4267838
